Measured values as given in patent US20070129537A1 (University of California, published 2007).
Ends that are not written are not given here.

Target: T1, natural proline-rich peptide ligand C3G, PPPALPPKKR (peptide SEQ ID NO: 11)
T1 peptide: PPPALPPKKR-NH2
Experiment: fluorescence-based titration (excitation 300 nm, emission 348 nm), 25 C, 0.5 uM protein, 1:1 complex assumed
Description: The ligated product is marked with an asterisk. […] The ligation product was by far the main product and could be easily isolated by semipreparative HPLC. Referring to FIG. 6B, characterization of the product by ES-MS confirmed the identity of the SH3 ligated domain. The ligated SH3 domain was readily purified by HPLC and refolded by flash dilution in 20 mM sodium phosphate, 100 mM NaCl at pH 7.2. The ligand binding activity of the synthetic SH3 domain was evaluated using a fluorescence-based titration assay. […] Referring to FIG. 6C, the equilibrium dissociation constant for binding of the synthetic SH3 domain to the natural proline-rich peptide ligand C3G i.e., […] (peptide SEQ ID NO: 11), was 0.9 μM. […]
Fluorescence-based Ligand Binding Assay. The equilibrium dissociation binding constant of synthetic SH3 domain for ligand SEQ ID NO: 11 was obtained using a fluorescence-based titration assay. […] Excitation was at 300 nm with a 2.5 nm slit and the fluorescence emission was monitored at 348 nm through a 5 nm slit. […] The dissociation constant was determined by changes in the fluorescence of the protein solution upon addition of the corresponding peptide ligand at defined concentrations; calculations were made assuming formation of a 1:1 complex. […]

B1: synthetic c-Crk N-terminal SH3 domain obtained by native chemical ligation of peptide thioester SEQ ID NO: 9 and peptide SEQ ID NO: 10 (other)
chain: AEYVRALFDFNGNDEEDLPFKKGCILRIRDKPEEQWWNAEDSEGKRGMIPVPYVEKYG
modifications: N-terminal acetyl (Ac-AEYV...); C-terminal amide implied (peptide SEQ ID NO: 10 made on Rink-amide resin); Cys introduced at the N-terminus of SEQ ID NO: 10 (ligation site); the -SEt thioester of SEQ ID NO: 9 is lost on ligation
notes: used at 0.5 uM in 20 mM sodium phosphate, 100 mM NaCl, pH 7.2; ESMS found 6894.1 Da (calculated 6891.7 Da); also called ligated SH3 domain; synthetic SH3 domain
Kd: 900 nM
